Kd and molecules bound per cell (molecules per cell) data for 1 substance are collected here from US6933132.

Assay [1] concerns the target surface of a PHA-activated T cell (unidentified binding site for soluble attractin-1). Kind of assay: Scatchard analysis, 125I-labeled soluble attractin on cells, 1 hr at 4 C.
Assay [2] has as its target surface of a resting T cell (unidentified binding site for soluble attractin-1). Described as above.

The term Kd denotes the equilibrium constant for the complex coming apart. A lower Kd goes with a tighter complex. As for “purified natural serum soluble attractin-1, 125I-labeled (from UniProt O75882 1-1267) (ligand)”, the equilibrium dissociation constant (Kd) in assay [1] and in assay [2] was 0.005 to 0.05 nM throughout. The results for the molecules bound per cell (molecules per cell) in assay [1] and in assay [2] were 2000 and 1000, respectively.
